From the Human Domainome abundance scans (Beltran et al. 2025) come the findings set out here.

± gives the uncertainty stated by the source.

B1: Homeobox protein cut-like 2, residues 895 to 963; numbered along this chain, O14529 (parent)
chain: EVDTLELTRQVKEKLAKNGICQRIFGEKVLGLSQGSVSDMLSRPKPWSKLTQKGREPFIRMQLWLSDQL

This data set covers variants of B1. Description: abundance fitness (aPCA) (normalised: wild type 0, dead -1); higher = more abundant; growth selection in yeast, the domain comes from the species named. The conditions noted are these: Homo sapiens.
With L50Q, the abundance fitness was -0.874 ± 0.068.

Consider L50R, for which the abundance fitness was -1.11 ± 0.094.

For L50K, the abundance fitness was -1.3 ± 0.17.

For the variant L50D, the abundance fitness is -0.607 ± 0.11.

Consider Q10N, for which the abundance fitness was -0.128 ± 0.046.

Take Q10S: the abundance fitness was -0.155 ± 0.03.

On to Q10L, for which the abundance fitness is -0.018 ± 0.026.

On to Q10D, for which the abundance fitness is 0.005 ± 0.11.

As to Q10V, the abundance fitness is -0.164 ± 0.043.

For G19E, the abundance fitness is -0.46 ± 0.092.

Consider G19H, for which the abundance fitness is -0.374 ± 0.33.

Regarding G19P, the abundance fitness was -0.005 ± 0.15.

Regarding G19V, the abundance fitness was -0.417 ± 0.057.

For the variant G19W, the abundance fitness was -0.341 ± 0.06.

M61S: the abundance fitness is -0.606 ± 0.037.

With M61V, the abundance fitness was -0.418 ± 0.048.

For the variant M61A, the abundance fitness was -0.093 ± 0.041.

For M61R, the abundance fitness was -0.935 ± 0.046.

Turning to V37L, the abundance fitness stood at 0.016 ± 0.027.

Turning to V37H, the abundance fitness was -0.378 ± 0.048.

For the variant V37C, the abundance fitness is -0.031 ± 0.038.

For V37G, the abundance fitness was -0.206 ± 0.048.

As to F58W, the abundance fitness was -0.111 ± 0.046.

As to F58M, the abundance fitness was -0.502 ± 0.076.

For the variant F58Y, the abundance fitness was found to be 0.186 ± 0.19.

With F58I, the abundance fitness is -0.596 ± 0.14.

Turning to F58Q, the abundance fitness was -1.01 ± 0.1.

Turning to F58S, the abundance fitness was -1.11 ± 0.062.

Regarding F58L, the abundance fitness was -0.274 ± 0.031.

In the case of F58E, the abundance fitness is -0.763 ± 0.14.

Regarding F58C, the abundance fitness was -0.845 ± 0.12.

F58T: the abundance fitness was -1.11 ± 0.096.

For L69E, the abundance fitness was -0.068 ± 0.064.

With L69A, the abundance fitness was -0.164 ± 0.07.

On to L69C, for which the abundance fitness is -0.054 ± 0.059.

On to L69S, for which the abundance fitness is -0.052 ± 0.043.

L69N: the abundance fitness was -0.058 ± 0.13.

As for L69P, the abundance fitness is -0.163 ± 0.057.

In the case of F25M, the abundance fitness was -0.462 ± 0.046.

For F25G, the abundance fitness was -0.9 ± 0.064.

As for F25R, the abundance fitness is -0.568 ± 0.067.

Take F25N: the abundance fitness was -0.803 ± 0.17.

For the variant R55L, the abundance fitness was -0.486 ± 0.029.

For the variant R55S, the abundance fitness was -0.559 ± 0.053.

As for R55P, the abundance fitness is -0.814 ± 0.07.

R55T: the abundance fitness is -0.359 ± 0.058.

Turning to V29H, the abundance fitness is -0.394 ± 0.054.

In the case of V29G, the abundance fitness is -0.173 ± 0.039.

With V29L, the abundance fitness is -0.108 ± 0.029.

Turning to V29S, the abundance fitness is -0.325 ± 0.034.

In the case of V29R, the abundance fitness is -0.121 ± 0.031.

On to V29Y, for which the abundance fitness was -0.145 ± 0.052.

As for R43Y, the abundance fitness worked out at 0.017 ± 0.078.

On to R43M, for which the abundance fitness is -0.224 ± 0.047.

As for R43Q, the abundance fitness is -0.066 ± 0.044.

S33G: the abundance fitness was -0.03 ± 0.033.

On to S33M, for which the abundance fitness was 0.053 ± 0.05.

For S33T, the abundance fitness was -0.036 ± 0.048.

On to S33Y, for which the abundance fitness was -0.12 ± 0.047.

As to S33C, the abundance fitness was -0.035 ± 0.037.

In the case of S33K, the abundance fitness stood at 0.023 ± 0.067.

On to S38N, for which the abundance fitness is 0.012 ± 0.027.

For the variant S38A, the abundance fitness was determined as 0.015 ± 0.028.

With S38D, the abundance fitness stood at 0.007 ± 0.048.

As for T4I, the abundance fitness is -0.126 ± 0.059.

T4H: the abundance fitness was -0.186 ± 0.051.

On to T4E, for which the abundance fitness was -0.208 ± 0.041.

As to T4F, the abundance fitness is -0.006 ± 0.063.

With T4V, the abundance fitness was -0.221 ± 0.031.

Regarding K12Q, the abundance fitness is -0.358 ± 0.061.

As for K12G, the abundance fitness is -0.516 ± 0.037.

With K12V, the abundance fitness is -0.366 ± 0.036.

On to K12R, for which the abundance fitness is -0.187 ± 0.031.

As to K12E, the abundance fitness was -0.348 ± 0.074.

Regarding D67E, the abundance fitness is -0.017 ± 0.12.

On to D67N, for which the abundance fitness is -0.07 ± 0.13.

Turning to D67Y, the abundance fitness was -0.321 ± 0.065.

For the variant D67A, the abundance fitness is -0.207 ± 0.1.

Turning to D67V, the abundance fitness was -0.549 ± 0.088.

On to D67H, for which the abundance fitness is -0.296 ± 0.13.

As for D67K, the abundance fitness is -0.037 ± 0.078.

Turning to W64Q, the abundance fitness is -0.907 ± 0.066.

As to W64Y, the abundance fitness was -0.372 ± 0.092.

Turning to W64I, the abundance fitness is -1.19 ± 0.25.

As to W64M, the abundance fitness is -1.06 ± 0.1.

In the case of W64K, the abundance fitness is -0.899 ± 0.07.

For W64R, the abundance fitness was -0.945 ± 0.063.

Regarding E13F, the abundance fitness was -0.182 ± 0.034.

Take E13G: the abundance fitness was -0.2 ± 0.046.

For E13V, the abundance fitness is -0.235 ± 0.041.

As to E13R, the abundance fitness is -0.101 ± 0.041.

In the case of E13S, the abundance fitness is -0.129 ± 0.037.

As to E13I, the abundance fitness is -0.139 ± 0.056.

As to P44Y, the abundance fitness is -0.041 ± 0.057.

With P44W, the abundance fitness was -0.103 ± 0.058.

On to P44T, for which the abundance fitness is -0.101 ± 0.043.

For the variant P44K, the abundance fitness is -0.134 ± 0.075.

With P44S, the abundance fitness was -0.171 ± 0.036.

P44C: the abundance fitness was -0.153 ± 0.054.

For K45C, the abundance fitness is -0.229 ± 0.24.

As to K45E, the abundance fitness is -0.173 ± 0.074.

Turning to K45V, the abundance fitness was -0.083 ± 0.034.

As to K45T, the abundance fitness is -0.149 ± 0.055.

As for K45Q, the abundance fitness is -0.132 ± 0.059.

With K45H, the abundance fitness is -0.288 ± 0.083.

Consider K45P, for which the abundance fitness was -0.073 ± 0.16.

K45L: the abundance fitness is -0.009 ± 0.025.

In the case of C21E, the abundance fitness is -0.04 ± 0.043.

On to S48T, for which the abundance fitness is -0.085 ± 0.042.

As to S48N, the abundance fitness is -0.055 ± 0.051.

On to S48V, for which the abundance fitness was -0.259 ± 0.035.

S48A: the abundance fitness is -0.064 ± 0.045.

As for S48Y, the abundance fitness was -0.084 ± 0.062.

Regarding D3W, the abundance fitness was -0.221 ± 0.035.

For D3S, the abundance fitness is -0.084 ± 0.062.

Turning to D3Y, the abundance fitness was -0.358 ± 0.047.

Turning to D3M, the abundance fitness is -0.163 ± 0.027.

As to A16T, the abundance fitness is -0.062 ± 0.04.

Consider A16M, for which the abundance fitness was -0.048 ± 0.037.

For the variant A16Y, the abundance fitness is -0.234 ± 0.1.

For the variant A16N, the abundance fitness is -0.189 ± 0.15.

With L5D, the abundance fitness is -0.146 ± 0.048.

In the case of L5E, the abundance fitness came out at 0.083 ± 0.031.

On to L5R, for which the abundance fitness was -0.039 ± 0.031.

Consider L5N, for which the abundance fitness was determined as 0.046 ± 0.058.

L5I: the abundance fitness is 0.024 ± 0.045.

Consider L5W, for which the abundance fitness is -0.021 ± 0.033.

For the variant L5K, the abundance fitness was 0.102 ± 0.031.

With E56D, the abundance fitness is -0.186 ± 0.12.

For E56M, the abundance fitness was -0.213 ± 0.059.

Consider E56R, for which the abundance fitness was -0.157 ± 0.04.

Take E56I: the abundance fitness worked out at 0.096 ± 0.095.

As for E56F, the abundance fitness was -0.362 ± 0.066.

With L41D, the abundance fitness was -0.353 ± 0.18.

As for L41F, the abundance fitness was -0.088 ± 0.046.

For L41C, the abundance fitness is -0.452 ± 0.13.

Turning to L41S, the abundance fitness was -0.234 ± 0.032.

Turning to L41Y, the abundance fitness was -0.418 ± 0.053.

In the case of L15Y, the abundance fitness is -0.124 ± 0.052.

For L15A, the abundance fitness came to 0.038 ± 0.14.

As for L15T, the abundance fitness was -0.343 ± 0.32.

As to T8E, the abundance fitness was -0.242 ± 0.045.

In the case of T8V, the abundance fitness turned out to be 0.041 ± 0.032.

For T8K, the abundance fitness was -0.063 ± 0.041.

On to T8R, for which the abundance fitness is -0.136 ± 0.029.

Take G26C: the abundance fitness is -0.02 ± 0.032.

Turning to G26H, the abundance fitness is -0.525 ± 0.12.

As for E6G, the abundance fitness is -0.111 ± 0.027.

Take E6S: the abundance fitness is -0.095 ± 0.047.

On to L30R, for which the abundance fitness is -0.18 ± 0.037.

Turning to L30G, the abundance fitness is -0.387 ± 0.032.

Turning to L30D, the abundance fitness is -0.588 ± 0.048.

For L30N, the abundance fitness is -0.425 ± 0.063.

As to P46N, the abundance fitness is -0.223 ± 0.049.

Consider P46V, for which the abundance fitness was -0.415 ± 0.29.

In the case of P46K, the abundance fitness is -0.095 ± 0.071.

E1D: the abundance fitness is -0.457 ± 0.093.

With E1S, the abundance fitness is -0.063 ± 0.12.

For the variant E1V, the abundance fitness was -0.213 ± 0.038.

Consider E1T, for which the abundance fitness is -0.247 ± 0.075.

With E1F, the abundance fitness is -0.079 ± 0.17.

On to E1C, for which the abundance fitness turned out to be 0.037 ± 0.17.

In the case of K49I, the abundance fitness was -0.112 ± 0.042.

As for K49L, the abundance fitness was found to be 0.002 ± 0.028.

Consider K49H, for which the abundance fitness amounted to 0.009 ± 0.039.

Take K49S: the abundance fitness was -0.079 ± 0.03.

With D39V, the abundance fitness is -0.389 ± 0.14.
